B1: Untagged murine saposin A (SapA) [mouse] / His6-tagged murine β-galactocerebrosidase (GALC) [modified: glycosylated; glycosylated] [mouse] (parent)
chain 1: MGKSLPCDICKTVVTEAGNLLKDNATQEEILHYLEKTCEWIHDSSLSASCKEVVDSYLPVILDMIKGEMSNPGEVCSALNLCQSLQE
chain 2: YVLDDSDGLGREFDGIGAVSGGGATSRLLVNYPEPYRSEILDYLFKPNFGASLHILKVEIGGDGQTTDGTEPSHMHYELDENYFRGYEWWLMKEAKKRNPDIILMGLPWSFPGWLGKGFSWPYVNLQLTAYYVVRWILGAKHYHDLDIDYIGIWNERPFDANYIKELRKMLDYQGLQRVRIIASDNLWEPISSSLLLDQELWKVVDVIGAHYPGTYTVWNAKMSGKKLWSSEDFSTINSNVGAGCWSRILNQNYINGNMTSTIAWNLVASYYEELPYGRSGLMTAQEPWSGHYVVASPIWVSAHTTQFTQPGWYYLKTVGHLEKGGSYVALTDGLGNLTIIIETMSHQHSMCIRPYLPYYNVSHQLATFTLKGSLREIQELQVWYTKLGTPQQRLHFKQLDTLWLLDGSGSFTLELEEDEIFTLTTLTTGRKGSYPPPPSSKPFPTNYKDDFNVEYPLFSEAPNFADQTGVFEYYMNNEDREHRFTLRQVLNQRPITWAADASSTISVIGDHHWTNMTVQCDVYIETPRSGGVFIAGRVNKGGILIRSATGVFFWIFANGSYRVTADLGGWITYASGHADVTAKRWYTLTLGIKGYFAFGMLNGTILWKNVRVKYPGHGWAAIGTHTFEFAQFDNFRVEAAR

Variants of B1 are the subject of this assay. Briefly: pull-down (immobilised GALC, Coomassie SDS-PAGE, quantified). The note with it: with His6-tagged murine β-galactocerebrosidase (GALC) [modified: glycosylated, in the presence of Tween-20, n = 3, read off a plot.
With chain 1 N24Y, the ratio to parent came to 1.3.

The values above are taken from article PMC5764952 (2018).
